What all share (test): ITC
Background: Isothermal titration calorimetry measures the heat released or taken up as one component is titrated into another.

In experiment [1] the target is T1, Hsp27 alpha-crystallin domain (ACD, residues Q80–S176) (human, UniProt P04792 80-176).
Experiment [2] deals with Hsp27 GPG (isoleucine and valine of the IPV motif mutated to glycine) (human, UniProt P04792 1-205, isoleucine of the IPV (Ile179 as printed in p-0007) to glycine).
The target in experiment [3] is T1, Hsp27 alpha-crystallin domain (ACD, …). This is another data set of the same source.

Like-named read-outs stand apart in the source and are kept apart here.

T1 sequence (P04792 80-176): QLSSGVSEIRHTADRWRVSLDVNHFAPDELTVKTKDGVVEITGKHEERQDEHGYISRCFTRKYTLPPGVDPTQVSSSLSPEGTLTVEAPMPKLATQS
Chain of Hsp27 GPG (isoleucine and valine of the IPV motif mutated to glycine) (P04792 other isoform, or with tags, fused parts or gaps with the stated changes): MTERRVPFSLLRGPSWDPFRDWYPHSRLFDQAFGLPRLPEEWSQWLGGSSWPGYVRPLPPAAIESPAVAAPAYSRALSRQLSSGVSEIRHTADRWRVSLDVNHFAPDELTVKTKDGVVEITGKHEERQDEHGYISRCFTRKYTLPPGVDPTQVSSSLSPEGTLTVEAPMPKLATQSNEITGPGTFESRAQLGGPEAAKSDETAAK

B1: Hsp27 IPV H peptide with Ile179 mutated to alanine (peptide)
chain: EITAPVTHE
modifications: EITAPVTHE. The paper numbers the peptide from E176, so printed Ile179 (I of IPV) is UniProt I181. Peptide termini chemistry is not stated.
As usually defined, the Kd is the concentration at which binding is half-saturated. A low value points to a tighter complex. On to B1, for which, in experiment [1], the affinity, expressed as Kd, was 12.6 µM. In other words, the double-digit micromolar range.
As to EITIPVTHE [Hsp27 IPV H peptide (EITIPVTHE)], the Kd in experiment [2] was found to be 6.8 µM; in experiment [3], 7.3 µM.

B2: T184A (peptide)
chain: EITIPVAHE
modifications: synthetic 9-mer; alanine-scan variant of the His-containing IPV peptide … (gives EITIPVAHE). The T184 label fits UniProt numbering, not the shifted numbering printed in the text. Termini not stated
B2: in experiment [1], the affinity, expressed as Kd, was 9.43 µM.
Still for that read-out and setting: in the case of EITIAVTHE [Hsp27 IPV H peptide with the second X residue (Pro) of IXIXV mutated to alanine (EITIAVTHE)] it was 4.23 µM.

Values taken from paper PMC6212398 (2018).
